Assay results taken from the nanobody polyreactivity screen of Harvey et al. (2022).

Assay: yeast display, Sf9 membrane polyspecificity reagent, FACS + sequencing; frameworks hold sequencing errors
Method in brief: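 A synthetic nanobody library was expressed on Saccharomyces cerevisiae BJ5465 by galactose induction for 36–48 hours. The library was stained for 1 hour at 4 °C with 10% biotinylated, detergent-solubilized Sf9 membrane reagent and enriched with streptavidin microbeads before FACS. Low and high (top ~1%) gates were set on anti-HA fluorescence for expression and streptavidin fluorescence for reagent binding, and each polyreactivity label reflects the gate of origin.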

Row | Sequence | polyreactivity (PSR sort gate)
1 | QVQLVESGGGLVQAGGSLRLSCAAYGFIFVRYAMGWYRQAPGKERELVAAISWRGGSTYYADSVKGRFTISRDNAKNTVYLQMNSLKPEDNAVYYCAGAVYQRARYYWGQGTQVNVSS | high polyreactivity
2 | QVQLVESGGGLVQAGGSLRLTCAASGTIFKRYAMRLYRQAPGKERELVATISSRGSCTNYADSLKGRFTISRDIAKNTVYLQMNSLKPQDTAVYYCASEVYRGDFWGQGTQVTVSS | high polyreactivity
3 | QVQLVESGGGLVQAGGSLRLSCAASGSIFIPYAMGWYRQAPGKERELVAAIRDSGASTYYADSVKGRFTISRDNAKNTVYLQMNSLKPEDTAVYYCAVRFYDWRYYYWGQGTQVTVSS | high polyreactivity
4 | QVQLVESGGGLVQAGGSLRLSCAASGITFGGYAMGWYRQAPGKERELVASIRSGSTTNYADSVKGRFTISRDNAKNTVYLQMNSLKPEDTAVYYCAARNFRNRYGYWGQGTQVTVSS | high polyreactivity
5 | QVQLVESGGGLVQAGCSLRLSPASGSTLAGNTMGWYRQAPGKERELVAAINDSGGSTYYADSVKGRFTISRDNAKNSVNLQMNSLKPEDTGVYYCNADGSAYIEDGYDYWGQGTQVTVSS | low polyreactivity
6 | KVQLVESGGGLVQAGGSLRLSCAASGLILWYYAMGWAIQAPGKERELVAAISRYGASTYYADSVKGRFTISRDNAKNTDYLQLNSLKPEDTAVYYCATGSSRYRHQRDYLGQGTQVTVSS | high polyreactivity
7 | QVQLVESGGGLVQAGGSLRLSCAASGSTFQVYGMGWYRQAPGKERELVAAISRSGGRTYYADSVKGRFTISRDNAKNTVYLQMNSLKPEDTAVYYCNAPISYYDEYYYWGQGTQVTVSS | high polyreactivity
8 | QVQLVESGGGLVQAGGSLRLSCAASGSIIYYYAMGWYRQAPGKERELVAAIRGGGSTNYADSVKGRFTISRDNAKNTVYLQMNSLKPEDTAVYYCNADYRNDCGTPLWYAYNYWGQGTQVTVSS | low polyreactivity
9 | QVQLVESGGGLVQAGGSLRLSCAASGYIFRVYAMGWYTPAPGKERELVAAISGSGGRTYYADSVKGRFKFSLDIAKNTVYLKMNSLKREDTAVYYCAATLYYYVGVRYDYWGQGSQVTVSS | high polyreactivity
10 | QVQLVESGGGLVQAGGSLRLSCAASGRTFNYYTMGWYRQAPGKERELVAAISWSGDSTYYADSVKGRFTISRDNAKNTVYLQMNSLKPEDTAVYYCAAGYASGPRPQTAYYYWGQGTQVTVSS | low polyreactivity
11 | QVQLVESGGGLVQAGGSLRLSCAASGSTYENAMGWYRQAPGKERELVAVISRSGGSTYYADSVKGRFTISRDNAKNTVYLQMNSLKPEDTAVYYCATVYSAWSWVHGYYVAMDYWGQGTQVTVSS | high polyreactivity
12 | QVQLVESGGGLVQAGGSLRLSCAASGSTFSSYAMGWYRPAPGKERELVAAITSSGGSTYYADSVKGRFTISRDNAKNTVYLQMNSLKPEDTAVYYCAAADVIFWLYYYWGQGTQVTVSS | low polyreactivity
13 | QVQLVESGGGLVQAGGSLRLSCAASGRTFIFNAMGWYRQAPGKERELVAAISSGGGTNYADSVKGRFTISRDNAKNTVYLQMNSLKPEVTAVYYCAADPRDHYSYVYDGYKYDYWGQGTQVTVSS | low polyreactivity
14 | QVQLVESGGGLVQAGGSLRLSCAASGSIFDSNAMGWYRQAPGKERELVASIDRGGDTNYADSVKGRFTISRDNAKNTVYLQMNSLKPEDTAVYYCAAYYYKWVWIGMDYWGQGTQVTVSS | low polyreactivity
15 | QVQLVESGGGLVQAGGSLRLSCAASGFIFGHNAMGWYRQAPGKERELVASISKSGGDTYYADSVKGRFTISRDNAKNTVYLQMNSLKPEDTAVYYCAAQGAVFEILDYWGQGTQVTVSS | low polyreactivity
16 | QVQLVESGGGLVQAGGILRLSCAASGFTFNNYAMGWYRQAPGKERELVAAISSGAGTYYAESVKGRFTISRDNAKNTVYLQMNSLKPEDTGVYYCNASLKYQGRTRITYRHDYCGQGTQVTVSS | low polyreactivity
17 | QVQLVESGGGLVQAGGSLRLSCAASGFTFGYNAMGWYRQAPGKERELVAVINKSGGSTYYADSVKGRFTISRDNAKNTVYLQMNSLKPEDTAVYYCAATYNGWKRYYYWGQGTQVTVSS | high polyreactivity
18 | QVQLVESGGGLVQAGGSLRLSCAASGRTFYWNAMGWYRQAPGKERELVAAITRNGGSTYYADSVKGRFTISRDNAKNNVYLQMNSLKPEDTAVYYCAARKRYGAGYDYWGQGTQVTVSS | high polyreactivity
19 | QVQLVESGRGLLQAGGSLPLSCAASGRIFAYNTMGWYRQAPGKERELVAAISWRGGSTYYADSVKGRFTISRDNAKKTVYFQMNSLKPEDTAVYYCSVLYSSFTRFDYWGQGSQVTVSS | high polyreactivity
20 | KVQLVESGGGLVQAGGSLRLSCAASGITSSYSAMVWYRQAPGKERELVAAITSSGGSTYYADSVKGRFTISRDNAKNTVYLQMNSLKPEVTAVYYCAARIGQYKAHTRINQYYIRYYWGQGTQVSVSS | low polyreactivity
21 | QVQLVESGGGLVQAGGSLRLSCAASGRIFVHNAMGWSRQAPGKERELVAAISSGGSTYYADSVKGRFTISRDNAKNTVYLQMNSLKPEDTAVYYCAIYAYYNKYDYWGQGTQVTVSS | high polyreactivity
22 | QVQLVESGGGLVQAGGSLRLSCAASGRIILLYTMGWYRQAPGKERELVAAISRSGGITYADSVKGRFTISRDNAKNTVYLQMNSLKPEDTAVYYCAKGGSSHAKGHFDYWGQGTQVTVSS | low polyreactivity

Row | Sequence | polyreactivity (PSR sort gate)
23 | QVQLEESGGGLVQAGGSLRLSCAASGRIFRGNAIAWYRQAPGKERELVASITRGNNTYYADSVKGRFTISRDNAKNTVYLQMNSLKPEDTAVYYCAKRYIYRYYWGQGTQVTVSS | high polyreactivity
24 | QVQLVESGGGLVQAGGSLRLSCAASGRIFIDYAMGWSRQAHGKERELVAAIDSGGNSNYADSVKGRFTISRDNAKNSVYLQKNSLKPEDTAVYYCNASGVTTDIAGVYWGQGTQVSVSS | low polyreactivity
25 | QVQLVESGGGLVQAGGSLLLSCAASGRTFAPYAMGWYRQAPGKERELVAAISSGGGNTYYADSVKGRFTISRDNAKITVYLHMNSLKPEDTAVYYCNAAQRRGGLGYSGQGTQVTVSS | high polyreactivity
26 | QVQLVESGGGLVQAGGSLRLSCAASGITIFGYAMGWYRQAPGKERELVAAINYSGDSTYYADSVKGRFTISRDNAKNTVYLQMNSVKPEDTAVYYCAATRSYRQPGPKYKSYYYLYYYWGQGTQVTVSS | high polyreactivity
27 | QFQLVESGGGLVQAGGSLRLSCAASGSTFLLYAMGWYRQAPGKEREFVASISGDGSSNYADSVKGRFTISRDNAKITVYLQMNSLKPEDTAVYYCAAVLLDPDSTLESGGNFDYWGQGTQVTVSS | low polyreactivity
28 | QVQLVASGGGLVQAGGSLRLTCAASGITSWYYAMGWYRQAPGKERELVAAITSDGSTYYADSVKGRFTISRDNAKNTVYLQMNSLNPEDTAVYYCAAERDYWIPDSYLVVMDYWGQGTQVTVSS | low polyreactivity
29 | QVQLVESGGGLVQAGGSLRLSCAASGRIFGQNTMGWYRQAPGKERELVAAITWNGGRTYYADSVKGRFTISRDNAKNTVYLQMNSLKPEDTAVYYCAARYSTYPWYNYWGQGTQVTVSS | high polyreactivity
30 | QVQLVESGGGLVQAGGSLRLSCAASGITFNKNAMGWYRQAPGKEREFVAAITRRGGSTYYADSVKGRFTISRDNAKNTVYLQMNSLKPEDTAVYYCAARPYWSYRRYDYWGQGTQVTVSS | high polyreactivity
31 | QVQLVESGGGLVQAGGSLRLSCAASGFTFYTYAMGWYRQEPGKEREMVATISGSGGDTNYADSVKGRFTISRDNAKNTGYLQMDSLKPEDTAVYYCAAETQSVWSGFYYWGQGTQVTVSS | low polyreactivity
32 | QVQLVESGGGLVQAGGSLRLSCAASGSIFAYYAMGWYRQAPGKERELVAAISSSGGSTTYADSVKGRFTISRDNAKNTVYLQMNSLKPEDTAVYYCNAAWRRSRYYYWGQGTQVTVSS | high polyreactivity
33 | QVQLEESGGGLVQAGGSLRLSCAASGITFPRYAMGWYRQAPGKERELVAAIRWNGGSTYYADSVKGRFTISRDNAKNTVYLQMNSLKPEDTAVYYCAARKDPSFSSFGYGYWGQGTQVTVSS | high polyreactivity
34 | QVQLVESGGGLVQAGGSLRLSCAASGRIQYNAMGWYRQAPGKEREFVAAISWSGGTTYYADSVKGRFTISRDNAKNTVYLQMNSLKPEDTAVYYCATPYTHWGQGTQVTVSS | high polyreactivity
35 | QVQLVESVGGLVQAGGTRRLSCDASGRTFGLNVMGWYRHAPGKERELVASIRNIGGSTYYADSVKWRFTISCDNAKNTVYLQMNSLKPEDTAVYYCAADYNLVVQGYDYWGQGTQVTVSS | high polyreactivity
36 | QVQLVESGGGLVQAGGSHGLSCAASGRTFYYYAMGWYRPAPGKERELVAAITSGGRTYYADSVKGRFTISRDNAKNTDYLQMNRLKPEDTAVYYCAADLSDPDWSRYQWDMDYWGQGTQVTVSS | low polyreactivity
37 | QVQLVESGGGLVQAGGSLRLSCAAYGRIFGGYAMGWYRQAPGKERELVAAISRRGGSTYYADSVKGRFTISRDNAKNTVYLQMNSLKPEDTAVYYCNAVLSVQARLTRVDYDYWGQGTEVTVSS | high polyreactivity
38 | QVQIVESGGGLVQAGGSLRLSCAASGSTFKWYAMGWYRQSTGKERQLVAAITSTDSTTYADSLKGRFTISRDNAKNTVYLHMNSLKPEDTAVYYCNRLYYHWYGGLDYWGLGTQVTVSS | high polyreactivity
39 | QVQLVESGGGLVQAGGSLRLSCAASGSIFYTYAMGWYRPAPGKEREFVAAITSSGGSTYYADSVKGRFTISRDNAKNTVYLQMNSLKPEDTAVYYCAARTPHYGKCYDIFDYWGQGTQVTVSS | low polyreactivity
40 | QVQLVESRGGLVQAGCSLRLRCAASGYIFYGYDKGWYRPAPGKERELVAGITYSGGGGTHYADSVKGRFTISRDNAKNTVYLQMNSLKQEDRGVYYCAKADPQLNRTYYSYGMDSWGQGTQVTVSS | low polyreactivity
41 | QVQLVESGGGLVQAGGSLRLSCAASGLILYSYAMGWYRQAPGKERELVADISSGGITNYADSVKGRFTISRDNAKNTVYLQMNSLKPEDTAVYYCAADTRPVNYILYDYWGQGTQVTVSS | low polyreactivity
42 | QVQLVESGGGLVQAGASLRLSCASSGSIFPGYDMGWYRQAPGKEREMVAAITTGGSTYYADSVKGRFTISRDNAKNTVYLQMNSLKPEDTAVYYCAAVYTGSGKRYYKGYYWGQGSQVTVSS | low polyreactivity
43 | QVQHVESGGGLVQAGGSLRLSCAASGRTLRYYAMGGYRRAPGKERELVAAITKSGGSPYYADSVKGRFTISRDNAKNTVYLQMYSLKPEDTAVYYCNKVTYSRAQYIGGAGYYWGQGTQVTVSS | high polyreactivity
